# US20090111745A1 (DOMANTIS, published 2009)
# B1: DOM7h-21 (other)
# VH: EVQLLESGGGLVQPGGSLRLSCAASGFTFDLYDMSWVRQAPGKGLEWVSSIVNSGVRTYYADSVKGRFTISRDNSKNTLYLQMNSLRAEDTAVYYCAKLNQSYHWDFDYWGQGTLVTVSS
# B2: DOM7r-15 (other)
# VL: DIQMTQSPSSLSASVGDRVTITCRASQSIGRRLKWYQQKPGAAPRLLIYRTSWLQSGVPSRFSGSGSGTDFTLTISSLQPEDFATYYCQQTSQWPHTFGQGTKVEIKR
# B3: DOM7r-27 (other)
# VH: EVQLLESGGGLVQPGGSLRLSCAASGFTFWPYTMSWVRQAPGKGLEWVSTISPFGSTTYYADSVKGRFTISRDNSKNTLYLQMNSLRAEDTAVYYCAKSDVLKTGLDGFDYWGQGTLVTVSS
# B4: DOM7h-25 (other)
# VH: EVQLLESGGGLVQPGGSLRLSCAASGFTFWKYNMAWVRQAPGKGLEWVSTILGEGNNTYYADSVKGRFTISRDNSKNTLYLQMNSLRAEDTAVYYCAKTMDYKFDYWGQGTLVTVSS
# B5: DOM7h-23 (other)
# VH: EVQLLESGGGLVQPGGSLRLSCAASGFTFYDYNMSWVRQAPGKGLEWVSTITHTGGVTYYADSVKGRFTISRDNSKNTLYLQMNSLRAEDTAVYYCAKQNPSYQFDYWGQGTLVTVSS
# B6: DOM7h-24 (other)
# VH: EVQLLESGGGLVQPGGSLRLSCAASGFTFHRYSMSWVRQAPGKGLEWVSTILPGGDVTYYADSVKGRFTISRDNSKNTLYLQMNSLRAEDTAVYYCAKQTPDYMFDYWGQGTLVTVSS
# B7: DOM7h-26 (other)
# VH: EVQLLESGGGLVQPGGSLRLSCTASGFTFDEYNMSWVRQAPGKGLEWVSTILPHGDRTYYADSVKGRFTISRDNSKNTLYLQMNSLRAEDTAVYYCAKQDPLYRFDYWGQGTLVTVSS
# B8: DOM7h-27 (other)
# VH: EVQLLESGGGLVQPGGSLRLSCAASGFTFSDYRMSWVRQAPGKGLEWVSTIISNGKFTYYADSVKGRFTISRDNSKNTLYLQMNSLRAEDTAVYYCAKQDWMYMFDYWGQGTLVTVSS
# B9: DOM7r-31 (other)
# VH: EVQLLESGGGLVQPGGSLRLSCTASGFTFRHYRMGWVRQAPGKGLEWVSWIRPDGTFTYYADSVKGRFTISRDNSKNTLYLQMNSLRAEDTAVYYCAKSYMGDRFDYWGQGTLVTVSS
# B10: DOM7h-6 (other)
# VL: DIQMTQSPSSLSASVGDRVTITCRASQSISSYLNWYQQKPGKAPTLLIYRLSVLQSGVPSRFSGSGSGTDFTLTISSLQPEDFATYYCQQTYNVPPTFGQGTKVEIKR
# B11: DOM7m-26 (other)
# VL: DIQMTQSPSSLSASVGDRVTITCRASQSIYYHLKWYQQKPGKAPKLLIYKASTLQSGVPSRFSGSGSGTDFTLTISSLQPEDFATYYCQQVRKVPRTFGQGTKVEIKR
# notes: also called MSA 26
# B12: DOM7m-16 (other)
# VL: DIQMTQSPSSLSASVGDRVTITCRASQSIIKHLKWYQQKPGKAPKLLIYGASRLQSGVPSRFSGSGSGTDFTLTISSLQPEDFATYYCQQGARWPQTFGQGTKVEIKR
# notes: also called MSA16
# B13: DOM7r-7 (other)
# VL: DIQMTQSPSSLSASVGDRVTITCRASQYIGRYLRWYQQKPGKAPKLLIYDSSVLQSGVPSRFSGSGSGTDFTLTISSLQPEDFATYYCQQRYSSPYTFGQGTKVEIKR
# B14: DOM7r-16 (other)
# VL: DIQMTQSPSSLSASVGDRVTITCRASQKIYKNLRWYQQKPGKAPKLLIYNSSILQSGVPSRFSGSGSGTDFTLTISSLQPEDFATYYCQQRYLSPYTFGQGTKVEIKR
# B15: DOM7r-8 (other)
# VL: DIQMTQSPSSLSASVGDRVTITCRASQWIHRQLKWYQQKPGKAPKLLIYYASILQSGVPSRFSGSGSGTDFTLTISSLQPEDFATYYCQQTFSKPSTFGQGTKVEIKR
# B16: DOM7r-5 (other)
# VL: DIQMTQSPSSLSASVGDRVTITCRASQYISRQLRWYQQKPGKAPRLLIYGASVLQSGIPSRFSGSGSGTDFTLTISSLQPEDFATYYCQQRYITPYTFGQGTKVEVKR
# B17: DOM7r-3 (other)
# VL: DIQMTQSPSSLSASVGDRVTITCRASQYIGRYLRWYQQKPGKAPKLLIYDSSVLQSGVPSRFSGSGSGTDFTLTISSLQPEDFATYYCQQRYMQPFTFGQGTKVEIKR
# B18: DOM7r-17 (other)
# VL: DIQMTQSPSSLSASVGDRVTITCRASQKIYNNLRWYQQKPGKAPKLLIYNTSILQSGVPSRFSGSGSGTDFTLTISSLQPEDFATYYCQQRWRAPYTFGQGTKVEIKR
# B19: DOM7r-13 (other)
# VL: DIQMTQSPSSLSASVGDRVTITCRASQHIHRELRWYQQKPGKAPKLLIYQASRLQSGVPSRFSGSGSGTDFTLTISSLQPEDFATYYCQQKYLPPYTFGQGTKVEIKR
# B20: DOM7r-18 (other)
# VL: DIQMTQSPSSLSASVGDRVTITCRASQWIYKSLGWYQQKPGKAPKLLIYQSSLLQSGVPSRFSGSGSGTDFTLTISSLQPEDFATYYCQQYHQMPRTFGQGTKVEIKR
# B21: DOM7r-4 (other)
# VL: DIQMTQSPSSLSASVGDRVTITCRASQWIGRYLRWYQQKPGKAPKLLIYNGSQLQSGVPSRFSGSGSGTDFTLTISSLQPEDFATYYCQQRYLQPYTFGQGTKVEIKR
# B22: DOM7h-2 (other)
# VL: DIQMTQSPSSLSASVGDRVTITCRASQKIATYLNWYQQKPGKAPKLLIYRSSSLQSAVPSRFSGSGSGTVFTLTISSLQPEDFATYYCQQTYAVPPTFGQGTKVEIKR
# B23: DOM7r-14 (other)
# VL: DIQMTQSPSSLSASVGDRVTITCRASQHIHRELRWYQQKPGKAPKLLIYQASRLQSGVPSRFSGSGSGTDFTLTISSLQPEDFATYYCQQRYRVPYTFGQGTKVEIKR
# B24: DOM7r-19 (other)
# VL: DIQMTQSPSSLSASVGDRVTITCRASQWIYRHLRWYQQKPGKAPKLLIYDASRLQSGVPTRFSGSGSGTDFTLTISSLQPEDFATYYCQQTHNPPKTFGQGTKVEIKR
# B25: DOM7h-3 (other)
# VL: DIQMTQSPSSLSASVGDRVTITCRASQWIDTGLAWYQQKPGKAPRLLIYNVSRLQSGVPSRFSGSGSGTDFTLTISSLQPEDFATYYCQQYWGSPTTFGQGTKVEIKR
# B26: DOM7h-22 (other)
# VH: EVQLLESGGGLVQPGGSLRLSCAASGFTFSKYWMSWVRQAPGKGLEWVSSIDFMGPHTYYADSVKGRFTISRDNSKNTLYLQMNSLRAEDTAVYYCAKGRTSMLPMKGKFDYWGQGTLVTVSS
# B27: DOM7h-4 (other)
# VL: DIQMTQSPSSLSASVGDRVTITCRASQEIYSWLAWYQQRPGKAPKLLIYNASHLQSGVPSRFSGSGSGTDFTLTISSLQPEDFATYYCQQVIGDPVTFGQGTKVEIKR
# Columns and labels:
# human serum albumin [1] = biological target: T1, human serum albumin (human, UniProt P02768 25-609); assay: BIACORE SPR screen, column 'Biacore binding'
# T1 construct: also called HSA; HAS
# From the text: (§1) If a significant proportion of the clones in one of the selections were positive in the phage ELISA, then DNA from this selection was cloned into an expression vector for production of soluble dAb, and individual colonies were picked. […] Clones were then sequenced and unique dAb sequences identified.
# rat serum albumin [2] = biological target: T2, rat serum albumin (rat, UniProt P02770 25-608); assay: phage display selection on albumin (figure legend)
# T2 construct: also called RSA
# rat serum albumin [3] = biological target: T2, rat serum albumin; assay: affinity (KD) for rat serum albumin; method not stated in the table (BIACORE SPR in Example 1)
# mouse serum albumin [4] = biological target: T3, mouse serum albumin (mouse, UniProt P07724 25-608); assay: table of affinities (KD); BIACORE on serum albumin-coated chip according to Example 1;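 also: surface plasmon resonance with dAbs flowed over a chip carrying human, rat or mouse serum albumin, blocked uncoated flow cell as reference, KD from on- and off-rate curve fits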
# T3 construct: also called MSA
# Method: (§2) dAbs that bound serum albumin on a BIACORE chip (Biacore AB) were then further analysed to obtain information on affinity. The analysis was performed using a CM5 chip (carboxymethylated dextran matrix) that was coated with serum albumin. Flow cell 1 was an uncoated, blocked negative control, flow cell 2 was coated with HSA, flow cell 3 was coated with RSA and flow cell 4 was coated with MSA. The serum albumins were immobilised in acetate buffer pH 5.5 using the BIACORE coating wizard which was programmed to aim for 500 resonance units (RUs) of coated material. Each dAb of interest was expressed in the periplasm of E. coli on a 200 mL-500 mL scale and purified from the supernatant using batch absorption to protein A-streamline affinity resin (Amersham, UK) for the VH_{^S} and to protein L-agarose affinity resin (Affitech, Norway) for the Vκs followed by elution with glycine at pH 2.2 and buffer exchange to PBS. A range of concentrations of dAb were prepared (in the range 5 nM to 5 μM) by dilution into BIACORE HBS-EP buffer and flowed across the BIACORE chip.
# human serum albumin [5] = biological target: T1, human serum albumin; assay: as above
# Method: as §2
# human serum albumin [6] = biological target: T1, human serum albumin; assay: BIACORE SPR, albumin on a CM5 chip, dAb in solution
# Method: as §2
# rat serum albumin [7] = biological target: T2, rat serum albumin; assay: table of affinities (KD); BIACORE on serum albumin-coated chip according to Example 1;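 also: surface plasmon resonance with dAbs flowed over a chip carrying human, rat or mouse serum albumin, blocked uncoated flow cell as reference, KD from on- and off-rate curve fits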
# Method: as §2
# human serum albumin [8] = biological target: T1, human serum albumin; assay: table of affinities (KD); BIACORE on serum albumin-coated chip according to Example 1; '+' = detectable binding but weak (estimated KD > 5 µM);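 as to result: surface plasmon resonance with dAbs flowed over a chip carrying human, rat or mouse serum albumin, blocked uncoated flow cell as reference, KD from on- and off-rate curve fits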
# Method: as §2
# human serum albumin [9] = biological target: T1, human serum albumin; assay: phage display selection on albumin (figure legend)
# mouse serum albumin [10] = biological target: T3, mouse serum albumin; assay: BIACORE SPR screen, column 'Biacore binding'
# From the text: as §1
# rat serum albumin [11] = biological target: T2, rat serum albumin; assay: BIACORE SPR screen, column 'Biacore binding'
# From the text: as §1
binder,measurement,setting,value
B1,binding result,human serum albumin [1],binds
B2,binding result,rat serum albumin [2],binds
B3,Kd,rat serum albumin [3],250 nM
same,Kd,mouse serum albumin [4],250 nM
same,binding result,human serum albumin [5],no binding
B4,binding result,human serum albumin [1],binds
B5,Kd,human serum albumin [6],500 to 5000 nM
same,binding result,mouse serum albumin [4],no binding
same,Kd,human serum albumin [5],900 nM
same,binding result,rat serum albumin [7],no binding
B6,binding result,human serum albumin [1],binds
B7,Kd,human serum albumin [6],100 to 500 nM
same,binding result,mouse serum albumin [4],no binding
same,Kd,human serum albumin [5],300 nM
same,binding result,rat serum albumin [7],no binding
B8,binding result,human serum albumin [1],binds
B9,Kd,rat serum albumin [3],5000 nM
same,Kd,mouse serum albumin [4],1000 nM
same,Kd,human serum albumin [8],~10000 nM
B10,binding result,human serum albumin [9],binds
B11,Kd,mouse serum albumin [4],60 nM
same,Kd,human serum albumin [5],> 5000 nM
B12,Kd,mouse serum albumin [4],50 nM
same,Kd,human serum albumin [5],> 5000 nM
B13,binding result,mouse serum albumin [10],binds
same,binding result,rat serum albumin [11],binds
B14,Kd,rat serum albumin [3],1000 nM
same,Kd,mouse serum albumin [4],1000 nM
same,binding result,human serum albumin [5],no binding
B15,Kd,mouse serum albumin [4],40 nM
same,binding result,human serum albumin [5],no binding
same,Kd,rat serum albumin [7],20 nM
B16,binding result,rat serum albumin [11],binds
B17,Kd,rat serum albumin [3],12 nM
same,Kd,mouse serum albumin [4],> 5000 nM
same,binding result,human serum albumin [5],no binding
B18,binding result,rat serum albumin [2],binds
B19,binding result,human serum albumin [5],no binding
same,Kd,rat serum albumin [7],80 nM
B20,binding result,rat serum albumin [2],binds
B21,binding result,mouse serum albumin [10],binds
same,binding result,rat serum albumin [11],binds
B22,Kd,human serum albumin [6],10 to 100 nM
same,Kd,mouse serum albumin [4],> 5000 nM
same,Kd,human serum albumin [5],70 nM
same,Kd,rat serum albumin [7],> 5000 nM
B23,binding result,human serum albumin [5],no binding
same,Kd,rat serum albumin [7],50 nM
B24,binding result,rat serum albumin [2],binds
B25,binding result,human serum albumin [9],binds
B26,binding result,mouse serum albumin [4],no binding
same,Kd,human serum albumin [5],60 nM
same,binding result,rat serum albumin [7],no binding
B27,binding result,human serum albumin [9],binds
